Entries after “also recorded” stand apart in the source; their conditions may differ.

The values below come from publication PMC5339767, “A Novel Kleefstra Syndrome-associated Variant That Affects the Conserved TPLX Motif within the Ankyrin Repeat of EHMT1 Leads to Abnormal Protein Folding” (The Journal of Biological Chemistry, 2017).

One data set deals with T1, EHMT1 WT (Homo sapiens, UniProt Q9H9B1).
T1 construct: WT and p.P809L EHMT1 variant ankyrin domains expressed from Escherichia coli; His6 (N); made in house; host or cells: E. coli BL21 (DE3), pET vector
T1 sequence (Q9H9B1 765-1001 limits assumed): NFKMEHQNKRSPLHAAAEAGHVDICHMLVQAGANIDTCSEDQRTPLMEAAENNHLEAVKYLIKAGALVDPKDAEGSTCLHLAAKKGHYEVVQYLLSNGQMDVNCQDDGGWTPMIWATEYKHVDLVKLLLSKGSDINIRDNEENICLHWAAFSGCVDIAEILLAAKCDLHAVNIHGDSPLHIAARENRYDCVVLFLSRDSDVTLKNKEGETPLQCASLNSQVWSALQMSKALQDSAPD
Kind of data set: Trp fluorescence quenching titration of dimethylated histone H3 Lys9 peptide, WT EHMT1. The format is binding. The conditions noted are these: WT EHMT1 1 μM; stepwise addition of peptide (36.3 μM); 2 min equilibration; 20 °C; λEx 295 nm, λEm 350 nm; midpoint of logistic function with Hill slope; read-out: apparent affinity. The method, then: (§1) Circular dichroism spectra (Fig. 7, left panel) were recorded to study the effect of the p.P809L mutation on the secondary structure of EHMT1 and confirm the in silico predictions that the p.P809L variant causes abnormal protein folding. The far UV CD spectrum of EHMT1 is dominated by the α-helical content of the protein showing two characteristic minima at 222 and 208 nm. […] Lastly, because the ankyrin repeat domain of the EHMT1 is critical for binding to methylated histones to regulate gene expression, we also studied the interaction of EHMT1 and the p.P809L mutation with its dimethylated target, the histone H3K9 peptide, by monitoring the Trp fluorescence emission at 350 nm after excitation at 295 nm (Fig. 9, left panel).
FIGURE 9. Interaction of EHMT1 with the dimethylated histone H3 Lys^9 peptide. […] The change in fluorescence intensity was followed at λEm = 350 nm after excitation at λEx = 295 nm. […]
For experimental purposes, we produced and purified an N-terminal His6-tagged recombinant form of WT and the p.P809L EHMT1 proteins using the pET vector system (Novagen). […] Spectra in the far UV range (200–260 nm) for WT and p.P809L EHMT1 were recorded on an Aviv Biomedical Model 420SF circular dichroism spectrometer. […] Fluorescence measurements were performed at 20 °C on a Horiba Jobin-Yvon Fluorolog 3 spectrofluorometer equipped with a Wavelength Electronics LF1-3751 temperature controller. […]

The nature of data set [1]: intrinsic protein fluorescence emission spectra. The following applies: protein 1 μM, 20 °C; for λmax of fluorescence emission: excitation 280 and 295 nm, emission 310-440 nm. The format is physicochemical. How it is done:
as §1
FIGURE 8. Fluorescence emission spectra of WT EHMT1 and of p.P809L. Fluorescence emission spectra of WT EHMT1 (solid symbols and bars) and of p.P809L (open symbols and bars) were obtained. Spectra were recorded at 20 °C using a protein concentration of 1 μM. The excitation wavelengths (λEx) were 280 nm (circles; excitation of Trp and Tyr residues) and 295 nm (squares; selective excitation of Trp residues). […]
For experimental purposes, we produced and purified an N-terminal His6-tagged recombinant form of WT and the p.P809L EHMT1 proteins using the pET vector system (Novagen). […] Spectra in the far UV range (200–260 nm) for WT and p.P809L EHMT1 were recorded on an Aviv Biomedical Model 420SF circular dichroism spectrometer. […] Fluorescence measurements were performed at 20 °C on a Horiba Jobin-Yvon Fluorolog 3 spectrofluorometer equipped with a Wavelength Electronics LF1-3751 temperature controller. Fluorescence emission spectra of both proteins were recorded between 310 and 440 nm after excitation at 280 or 295 nm using a protein concentration of 1 μM in a 1-cm quartz cell. […] After equilibration for 2 min, the fluorescence signal was recorded and averaged for 20 s using an excitation wavelength of 295 nm for the selective excitation of Trp residues and an emission wavelength of 350 nm. […]

Data set [2] in a line: far UV circular dichroism spectroscopy. The format is physicochemical. The following applies: far UV CD 200–260 nm, 20 °C; Bestsel deconvolution; compared with WT. The method, then:
as §1
FIGURE 7. Impact of the p. P809L mutation on secondary structure. Left panel, far UV CD spectra of WT EHMT1 (●) and of p.P809L (○) were recorded at 20 °C, corrected by the signal of the buffer, and converted to mean ellipticity per amino acid residue (ϴ^MRW). […]
For experimental purposes, we produced and purified an N-terminal His6-tagged recombinant form of WT and the p.P809L EHMT1 proteins using the pET vector system (Novagen). […] Spectra in the far UV range (200–260 nm) for WT and p.P809L EHMT1 were recorded on an Aviv Biomedical Model 420SF circular dichroism spectrometer. […]

The next data set relates to CDK4. The conditions noted are these: non-quantitative two-hybrid GAL4-based reporter assay; cited from earlier work. The text has this:
(§2) Nevertheless, our study is the first to describe how mutations in any of the TPLX motifs of the EHMT1 ankyrin domain affect protein folding to induce a moderate change in its affinity for the H3K9me2 peptide. Thus, it becomes important to compare this information to other, better characterized mutations in ankyrin repeats that are known to be pathogenic in humans. […] Thus, this type of mutation ( ...

The conditions of data set [3]: p.P81L mutation in TPLX motif of p16; cited from earlier work.
Text: as §2

Take “H3K9me2 peptide: dimethylated histone H3 Lys^9 peptide”: in the data set with EHMT1 WT, the Kd is 760 nM.

B1: WT EHMT1: N-terminal His6-tagged recombinant form of WT EHMT1 (protein, UniProt Q9H9B1 2-1298, looked up)
Histone-lysine …: AAADAEAVPARGEPQQDCCVKTELLGEETPMAADEGSAEKQAGEAHMAADGETNGSCENSDASSHANAAKHTQDSARVNPQDGTNTLTRIAENGVSERDSEAAKQNHVTADDFVQTSVIGSNGYILNKPALQAQPLRTTSTLASSLPGHAAKTLPGGAGKGRTPSAFPQTPAAPPATLGEGSADTEDRKLPAPGADVKVHRARKTMPKSVVGLHAASKDPREVREARDHKEPKEEINKNISDFGRQQLLPPFPSLHQSLPQNQCYMATTKSQTACLPFVLAAAVSRKKKRRMGTYSLVPKKKTKVLKQRTVIEMFKSITHSTVGSKGEKDLGASSLHVNGESLEMDSDEDDSEELEEDDGHGAEQAAAFPTEDSRTSKESMSEADRAQKMDGESEEEQESVDTGEEEEGGDESDLSSESSIKKKFLKRKGKTDSPWIKPARKRRRRSRKKPSGALGSESYKSSAGSAEQTAPGDSTGYMEVSLDSLDLRVKGILSSQAEGLANGPDVLETDGLQEVPLCSCRMETPKSREITTLANNQCMATESVDHELGRCTNSVVKYELMRPSNKAPLLVLCEDHRGRMVKHQCCPGCGYFCTAGNFMECQPESSISHRFHKDCASRVNNASYCPHCGEESSKAKEVTIAKADTTSTVTPVPGQEKGSALEGRADTTTGSAAGPPLSEDDKLQGAASHVPEGFDPTGPAGLGRPTPGLSQGPGKETLESALIALDSEKPKKLRFHPKQLYFSARQGELQKVLLMLVDGIDPNFKMEHQNKRSPLHAAAEAGHVDICHMLVQAGANIDTCSEDQRTPLMEAAENNHLEAVKYLIKAGALVDPKDAEGSTCLHLAAKKGHYEVVQYLLSNGQMDVNCQDDGGWTPMIWATEYKHVDLVKLLLSKGSDINIRDNEENICLHWAAFSGCVDIAEILLAAKCDLHAVNIHGDSPLHIAARENRYDCVVLFLSRDSDVTLKNKEGETPLQCASLNSQVWSALQMSKALQDSAPDRPSPVERIVSRDIARGYERIPIPCVNAVDSEPCPSNYKYVSQNCVTSPMNIDRNITHLQYCVCIDDCSSSNCMCGQLSMRCWYDKDGRLLPEFNMAEPPLIFECNHACSCWRNCRNRVVQNGLRARLQLYRTRDMGWGVRSLQDIPPGTFVCEYVGELISDSEADVREEDSYLFDLDNKDGEVYCIDARFYGNVSRFINHHCEPNLVPVRVFMAHQDLRFPRIAFFSTRLIEAGEQLGFDYGERFWDIKGKLFSCRCGSPKCRHSSAALAQRQASAAQEAQEDGLPDTSSAAAADPL
modifications: N-terminal His6 tag
Regarding B1, in data set [1], the “λmax of fluorescence emission” value was roughly 350 nm.

B2: p.P809L: N-terminal His6-tagged recombinant p.P809L EHMT1 variant (c.2426C>T) (protein, UniProt Q9H9B1 2-1298, looked up, variant P809L)
Histone-lysine …: AAADAEAVPARGEPQQDCCVKTELLGEETPMAADEGSAEKQAGEAHMAADGETNGSCENSDASSHANAAKHTQDSARVNPQDGTNTLTRIAENGVSERDSEAAKQNHVTADDFVQTSVIGSNGYILNKPALQAQPLRTTSTLASSLPGHAAKTLPGGAGKGRTPSAFPQTPAAPPATLGEGSADTEDRKLPAPGADVKVHRARKTMPKSVVGLHAASKDPREVREARDHKEPKEEINKNISDFGRQQLLPPFPSLHQSLPQNQCYMATTKSQTACLPFVLAAAVSRKKKRRMGTYSLVPKKKTKVLKQRTVIEMFKSITHSTVGSKGEKDLGASSLHVNGESLEMDSDEDDSEELEEDDGHGAEQAAAFPTEDSRTSKESMSEADRAQKMDGESEEEQESVDTGEEEEGGDESDLSSESSIKKKFLKRKGKTDSPWIKPARKRRRRSRKKPSGALGSESYKSSAGSAEQTAPGDSTGYMEVSLDSLDLRVKGILSSQAEGLANGPDVLETDGLQEVPLCSCRMETPKSREITTLANNQCMATESVDHELGRCTNSVVKYELMRPSNKAPLLVLCEDHRGRMVKHQCCPGCGYFCTAGNFMECQPESSISHRFHKDCASRVNNASYCPHCGEESSKAKEVTIAKADTTSTVTPVPGQEKGSALEGRADTTTGSAAGPPLSEDDKLQGAASHVPEGFDPTGPAGLGRPTPGLSQGPGKETLESALIALDSEKPKKLRFHPKQLYFSARQGELQKVLLMLVDGIDPNFKMEHQNKRSPLHAAAEAGHVDICHMLVQAGANIDTCSEDQRTLLMEAAENNHLEAVKYLIKAGALVDPKDAEGSTCLHLAAKKGHYEVVQYLLSNGQMDVNCQDDGGWTPMIWATEYKHVDLVKLLLSKGSDINIRDNEENICLHWAAFSGCVDIAEILLAAKCDLHAVNIHGDSPLHIAARENRYDCVVLFLSRDSDVTLKNKEGETPLQCASLNSQVWSALQMSKALQDSAPDRPSPVERIVSRDIARGYERIPIPCVNAVDSEPCPSNYKYVSQNCVTSPMNIDRNITHLQYCVCIDDCSSSNCMCGQLSMRCWYDKDGRLLPEFNMAEPPLIFECNHACSCWRNCRNRVVQNGLRARLQLYRTRDMGWGVRSLQDIPPGTFVCEYVGELISDSEADVREEDSYLFDLDNKDGEVYCIDARFYGNVSRFINHHCEPNLVPVRVFMAHQDLRFPRIAFFSTRLIEAGEQLGFDYGERFWDIKGKLFSCRCGSPKCRHSSAALAQRQASAAQEAQEDGLPDTSSAAAADPL
modifications: N-terminal His6 tag
Turning to B2, the α-helical content entry in data set [2] is “reduced α-helical content; also recorded: decrease in the α-helical content”. Besides, the “fluorescence emission (intensity)” value in data set [1] (compared with wild type protein) is “decrease of the fluorescence emission”. In addition, the “λmax of fluorescence emission” value in data set [1] came to 347 nm.

B3: p.P81L p16: p.P81L mutation in the TPLX motif within the ankyrin repeat of the tumor suppressor p16 (protein, UniProt P42771 1-156, looked up, variant P81L)
Cyclin-dependent kinase …: MEPAAGSSMEPSADWLATAAARGRVEEVRALLEAGALPNAPNSYGRRPIQVMMMGSARVAELLLLHGAEPNCADPATLTRLVHDAAREGFLDTLVVLHRAGARLDVRDAWGRLPVDLAEELGHRDVARYLRAAAGGTRGSNHARIDAAEGPSDIPD
On to B3, for which, in the data set with CDK4, the “interaction with CDK4” value was “impaired interaction with CDK4”. Moreover, the secondary structure entry in data set [3] was “secondary structure alterations”.
